Source: article PMC3739937 (Molecular Microbiology, 2013)

T1: Colicin N (E. coli, UniProt P08083 1-387)
T1 sequence (looked up): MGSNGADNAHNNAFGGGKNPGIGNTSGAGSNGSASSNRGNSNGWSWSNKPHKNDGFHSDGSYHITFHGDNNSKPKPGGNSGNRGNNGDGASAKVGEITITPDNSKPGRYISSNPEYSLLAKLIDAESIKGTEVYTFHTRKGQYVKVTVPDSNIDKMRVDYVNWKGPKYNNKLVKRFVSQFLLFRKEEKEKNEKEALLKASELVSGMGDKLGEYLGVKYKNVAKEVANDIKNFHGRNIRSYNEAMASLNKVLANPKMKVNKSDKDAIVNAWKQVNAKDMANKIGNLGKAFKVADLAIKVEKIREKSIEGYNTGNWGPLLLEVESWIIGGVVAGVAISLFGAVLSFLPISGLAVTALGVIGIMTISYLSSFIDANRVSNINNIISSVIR

B1: OmpF (natural protein, E. coli, UniProt P02931 23-362, looked up)
chain: AEIYNKDGNKVDLYGKAVGLHYFSKGNGENSYGGNGDMTYARLGFKGETQINSDLTGYGQWEYNFQGNNSEGADAQTGNKTRLAFAGLKYADVGSFDYGRNYGVVYDALGYTDMLPEFGGDTAYSDDFFVGRVGGVATYRNSNFFGLVDGLNFAVQYLGKNERDTARRSNGDGVGGSISYEYEGFGIVGAYGAADRTNLQEAQPLGNGKKAEQWATGLKYDANNIYLAANYGETRNATPITNKFTNTSGFANKTQDVLLVAQYQFDFGLRPSIAYTKSKAKDVEGIGDVDLVNYFEVGATYYFNKNMSTYVDYIINQIDSDNKLGVGSDDTVAVGIVYQF
B2: ColN-T (isolated unstructured T-domain of colicin N) (domain or fragment, E. coli, UniProt P08083 1-90, looked up)
chain: MGSNGADNAHNNAFGGGKNPGIGNTSGAGSNGSASSNRGNSNGWSWSNKPHKNDGFHSDGSYHITFHGDNNSKPKPGGNSGNRGNNGDGA

How the values were obtained:
[1] = biological target: T1, Colicin N; assay: ITC
[2] = biological target: B1; assay: ITC

Question: Does B1 bind [1]?
Answer: binds

Question: How did the Kd [2] turn out when B2 was run?
Answer: 3.48 µM

Question: What about the dH [2] of the same binder?
Answer: -19.1 kcal/mol

Question: And the “stoichiometry N” value [2]?
Answer: 2.29
